# US20210340530A1 (INTELLIA THERAPEUTICS, published 2021)
# Experiments:
# [1] = target: T1, … (VLD) WT1 peptide pulsed on target cells (HLA-02.01 positive T2 cell line; OCI-AML3); test: cell-based or functional assay
# [2] = target: T2, … (RMF) WT1 peptide pulsed on target cells (HLA-02.01 positive T2 cell line; OCI-AML3); test: cell-based or functional assay
# [3] = target: T1, … (VLD) WT1 peptide pulsed on target …; test: cell-based or functional assay; remark: listed apart in the source
# [4] = target: T3, VLD-Tetramer (pMHC tetramer with WT1 peptide …); test: flow cytometry, VLD-Tetramer staining of engineered T cells; TRAC RNP only
# T3 construct: Staining reagent; also called VLD (Wilms' tumor antigen) tetramer; TCR specific pMHC tetramer
# Method: (§1) Four to 12 days after RNP nucleofection, edited T cells (200 ul/200,000 cells) were collected in a 96 well round bottom plate and spun down at 500 g for 5 minutes. Cells were then resuspended in an antibody mixture containing a combination of antibodies targeting CD3, CD4, CD8, CD45RO, CD45RA, CD27, CCR7, CD62L, and/or the TCR specific pMHC tetramer or TCR specific Vbeta chain antibody. The mixture was incubated for 45 minutes at room temperature in the dark. Samples were spun down at 500 g for 5 minutes, cell pellets collected, and resuspended in 1:10,000 DAPI (Biolegend—#422801) in FACS buffer. Flow cytometry was then performed using the cytoflex according to the manufacturer's instructions.
# (§2) T cells were evaluated with additional engineered TCRs for the impact of endogenous beta chains on pairing of both the inserted alpha chain and inserted beta chain. The experiment was performed as described herein except tetramer staining was used to measure MFI and the AAV inserts in Table 31 were used for transduction.
# [5] = target: T1, … (VLD) WT1 peptide pulsed on target …; test: cell-based or functional assay; remark: listed apart in the source
# [6] = target: T2, … (RMF) WT1 peptide pulsed on target …; test: cell-based or functional assay; remark: listed apart in the source
# [7] = target: T1, … (VLD) WT1 peptide pulsed on target …; test: cell-based or functional assay; remark: listed apart in the source
# [8] = target: T2, … (RMF) WT1 peptide pulsed on target …; test: cell-based or functional assay; remark: listed apart in the source
# [9] = target: T1, … (VLD) WT1 peptide pulsed on target …; test: cell-based or functional assay; remark: listed apart in the source
# [10] = target: T3, VLD-Tetramer (pMHC tetramer with WT1 …); test: flow cytometry, VLD-Tetramer staining of engineered T cells; TRAC + TRBC RNP
# Method: as §1, §2
# [11] = target: T4, WT1 (Wilms' tumor protein) peptide on HLA-A*02:01 (human); test: killing
# T4 peptide: RMFPNAPYL
binder,measurement,setting,value
"TCR-H (WT1-specific T-cell receptor) (TCR, V domains shown, also called AV16-TCR-H) V domain 1: RKEVEQDPGPFNVPEGATVAFNCTYSNSASQSFFWYRQDCRKEPKLLMSVYSSGNEDGRFTAQLNRASQYISLLIRDSKLSDSATYLCVVKPDPGAGSYQLTFGKGTKLSVIP V domain 2: NAGVTQTPKFRVLKTGQSMTLLCAQDMNHEYMYWYRQDPGMGLRLIHYSVGEGTTAKGEVPDGYNVSRLKKQNFLLGLESAAPSQTSVYFCASRGYHRLNNEQFFGPGTRLTVLE",IFN-gamma release; TRAC/TRBC; 50 nM VLD; T2,[1],16100
same,IFN-gamma release; TRAC/TRBC; 500 nM VLD; T2,[1],24400
same,IFN-gamma release; only TRAC; 50 nM VLD; T2,[1],15900
same,IFN-gamma release; only TRAC; 500 nM VLD; T2,[1],24300
same,Caspase 3/7 integrated intensity; TRAC only; 500 nM RMF; T2,[2],4190
same,Caspase 3/7 integrated intensity; TRAC/TRBC; 500 nM RMF; T2,[2],3890
same,Caspase 3/7 integrated intensity; TRAC only; 0 nM VLD; T2,[3],6560
same,Caspase 3/7 integrated intensity; TRAC only; 0.005 nM VLD; T2,[3],7650
same,Caspase 3/7 integrated intensity; TRAC only; 0.05 nM VLD; T2,[3],23600
same,Caspase 3/7 integrated intensity; TRAC only; 0.5 nM VLD; T2,[3],550000
same,Caspase 3/7 integrated intensity; TRAC only; 5 nM VLD; T2,[3],992000
same,Caspase 3/7 integrated intensity; TRAC only; 50 nM VLD; T2,[3],1.08e+06
same,Caspase 3/7 integrated intensity; TRAC only; 500 nM VLD; T2,[3],1.18e+06
same,Caspase 3/7 integrated intensity; TRAC/TRBC; 0 nM VLD; T2,[3],7390
same,Caspase 3/7 integrated intensity; TRAC/TRBC; 0.005 nM VLD; T2,[3],9820
same,Caspase 3/7 integrated intensity; TRAC/TRBC; 0.05 nM VLD; T2,[3],32400
same,Caspase 3/7 integrated intensity; TRAC/TRBC; 0.5 nM VLD; T2,[3],628000
same,Caspase 3/7 integrated intensity; TRAC/TRBC; 5 nM VLD; T2,[3],984000
same,Caspase 3/7 integrated intensity; TRAC/TRBC; 50 nM VLD; T2,[3],1.08e+06
same,Caspase 3/7 integrated intensity; TRAC/TRBC; 500 nM VLD; T2,[3],1.18e+06
same,Mean % Tetramer+ (CD4+),[4],71.7%
same,Mean % Tetramer+ (CD8+),[4],68.8%
same,Mean Tetramer MFI (CD4+),[4],64300 MFI
same,Mean Tetramer MFI (CD8+),[4],75200 MFI
same,IL2 release; TRAC only; 0 nM VLD; T2,[5],102 pg/mL
same,IL2 release; TRAC only; 0.005 nM VLD; T2,[5],44 pg/mL
same,IL2 release; TRAC only; 0.05 nM VLD; T2,[5],2 pg/mL
same,IL2 release; TRAC only; 0.5 nM VLD; T2,[5],23 pg/mL
same,IL2 release; TRAC only; 5 nM VLD; T2,[5],175 pg/mL
same,IL2 release; TRAC only; 50 nM VLD; T2,[5],111 pg/mL
same,IL2 release; TRAC only; 500 nM VLD; T2,[5],387 pg/mL
same,IL2 release; TRAC/TRBC; 0 nM VLD; T2,[5],17 pg/mL
same,IL2 release; TRAC/TRBC; 0.005 nM VLD; T2,[5],15 pg/mL
same,IL2 release; TRAC/TRBC; 0.05 nM VLD; T2,[5],40 pg/mL
same,IL2 release; TRAC/TRBC; 0.5 nM VLD; T2,[5],17 pg/mL
same,IL2 release; TRAC/TRBC; 5 nM VLD; T2,[5],30 pg/mL
same,IL2 release; TRAC/TRBC; 50 nM VLD; T2,[5],286 pg/mL
same,IL2 release; TRAC/TRBC; 500 nM VLD; T2,[5],455 pg/mL
same,% CD4+ CD107a+; TRAC/TRBC; 50 nM RMF; T2,[6],3.7%
same,% CD8+ CD107a+; TRAC/TRBC; 50 nM RMF; T2,[6],2.64%
same,% CD4+ CD107a+; TRAC/TRBC; 0 nM VLD; T2,[7],3.42%
same,% CD4+ CD107a+; TRAC/TRBC; 0.005 nM VLD; T2,[7],3.63%
same,% CD4+ CD107a+; TRAC/TRBC; 0.05 nM VLD; T2,[7],4.48%
same,% CD4+ CD107a+; TRAC/TRBC; 0.5 nM VLD; T2,[7],6.82%
same,% CD4+ CD107a+; TRAC/TRBC; 5 nM VLD; T2,[7],8.09%
same,% CD4+ CD107a+; TRAC/TRBC; 50 nM VLD; T2,[7],8.28%
same,% CD8+ CD107a+; TRAC/TRBC; 0 nM VLD; T2,[7],2.29%
same,% CD8+ CD107a+; TRAC/TRBC; 0.005 nM VLD; T2,[7],5.05%
same,% CD8+ CD107a+; TRAC/TRBC; 0.05 nM VLD; T2,[7],23.6%
same,% CD8+ CD107a+; TRAC/TRBC; 0.5 nM VLD; T2,[7],45.6%
same,% CD8+ CD107a+; TRAC/TRBC; 5 nM VLD; T2,[7],60.7%
same,% CD8+ CD107a+; TRAC/TRBC; 50 nM VLD; T2,[7],70.5%
same,% CD4+ TNFa+ IFNg+; TRAC/TRBC; 50 nM RMF; T2,[8],2.9%
same,% CD8+ TNFa+ IFNg+; TRAC/TRBC; 50 nM RMF; T2,[8],0.6%
same,% CD4+ TNFa+ IFNg+; TRAC/TRBC; 0 nM VLD; T2,[9],3.1%
same,% CD4+ TNFa+ IFNg+; TRAC/TRBC; 0.005 nM VLD; T2,[9],2.1%
same,% CD4+ TNFa+ IFNg+; TRAC/TRBC; 0.05 nM VLD; T2,[9],3%
same,% CD4+ TNFa+ IFNg+; TRAC/TRBC; 0.5 nM VLD; T2,[9],4.4%
same,% CD4+ TNFa+ IFNg+; TRAC/TRBC; 5 nM VLD; T2,[9],6%
same,% CD4+ TNFa+ IFNg+; TRAC/TRBC; 50 nM VLD; T2,[9],6.9%
same,% CD8+ TNFa+ IFNg+; TRAC/TRBC; 0 nM VLD; T2,[9],0.5%
same,% CD8+ TNFa+ IFNg+; TRAC/TRBC; 0.005 nM VLD; T2,[9],3.7%
same,% CD8+ TNFa+ IFNg+; TRAC/TRBC; 0.05 nM VLD; T2,[9],27.1%
same,% CD8+ TNFa+ IFNg+; TRAC/TRBC; 0.5 nM VLD; T2,[9],48.7%
same,% CD8+ TNFa+ IFNg+; TRAC/TRBC; 5 nM VLD; T2,[9],67.5%
same,% CD8+ TNFa+ IFNg+; TRAC/TRBC; 50 nM VLD; T2,[9],79.2%
same,Mean % Tetramer+ (CD4+),[10],80.2%
same,Mean % Tetramer+ (CD8+),[10],77.1%
same,Mean Tetramer MFI (CD4+),[10],131000 MFI
same,Mean Tetramer MFI (CD8+),[10],139000 MFI
"TCR-H (TCR, V domains shown) Valpha: RKEVEQDPGPFNVPEGATVAFNCTYSNSASQSFFWYRQDCRKEPKLLMSVYSSGNEDGRFTAQLNRASQYISLLIRDSKLSDSATYLCVVKPDPGAGSYQLTFGKGTKLSVIP Vbeta: NAGVTQTPKFRVLKTGQSMTLLCAQDMNHEYMYWYRQDPGMGLRLIHYSVGEGTTAKGEVPDGYNVSRLKKQNFLLGLESAAPSQTSVYFCASRGYHRLNNEQFFGPGTRLTVL",binding result,[11],no recognition
"TCR-G (TCR, V domains shown) Valpha: DQQVKQNSPSLSVQEGRISILNCDYTNSMFDYFLWYKKYPAEGPTFLISISSIKDKNEDGRFTVFLNKSAKHLSLHIVPSQPGDSAVYFCAARGQGNLIFGKGTKLSVKP Vbeta: EAGVAQSPRYKIIEKRQSVAFWCNPISGHATLYWYQQILGQGPKLLIQFQNNGVVDDSQLPKDRFSAERLKGVDSTLKIQPAKLEDSAVYLCASSLYRGEQYFGPGTRLTVT",binding result,[11],no recognition
"TCR-F (TCR, V domains shown) Valpha: AQKITQTQPGMFVQEKEAVTLDCTYDTSDPSYGLFWYKQPSSGEMIFLIYQGSYDQQNATEGRYSLNFQKARKSANLVISASQLGDSAMYFCAISGNTPLVFGKGTRLSVIA Vbeta: AAGVIQSPRHLIKEKRETATLKCYPIPRHDTVYWYQQGPGQDPQFLISFYEKMQSDKGSIPDRFSAQQFSDYHSELNMSSLELGDSALYFCASSLRGGLEKLFFGSGTQLSVL",binding result,[11],no recognition
